Source: PMC8155481

Columns and labels:
[1] = molecular target: FBG-like domain of human Tenascin-X (human); test: SPR; Biacore T200; FBG-like domains immobilised on CM5 by amine coupling; mature TGF-β1 injected in single-cycle mode; PBS with 0.05% P-20, 25°C, 30 µl/min; heterogeneous ligand model; apparent constants
[2] = molecular target: FBG-like domain of human Tenascin-W with Arg1220 changed to alanine (FBG-W^RKKA) (human); test: as above

recombinant human mature TGF-β1 (ligand)
ka1 (heterogeneous ligand model, site 1) [1]: 8080 M⁻¹ s⁻¹ | ka2 (heterogeneous ligand model, site 2) [1]: 207000 M⁻¹ s⁻¹ | kd1 (heterogeneous ligand model, site 1) [1]: 0.00276 s⁻¹ | kd2 (heterogeneous ligand model, site 2) [1]: 0.0845 s⁻¹ | KD1 (heterogeneous ligand model, site 1) [2]: 1.89 µM | KD2 (heterogeneous ligand model, site 2) [2]: 6.48 µM | ka1 (heterogeneous ligand model, site 1) [2]: 1040 M⁻¹ s⁻¹ | ka2 (heterogeneous ligand model, site 2) [2]: 14300 M⁻¹ s⁻¹ | kd1 (heterogeneous ligand model, site 1) [2]: 0.00196 s⁻¹ | kd2 (heterogeneous ligand model, site 2) [2]: 0.0926 s⁻¹
